Data taken from US20200223889A1 (Novo Nordisk, published 2020).
Positions of bridges follow the written chain, without caps; N, C: chain ends. Non-standard residues stand in square brackets, D forms with d. Pro(trans-4-guanidino) = N=C(N)N[C@H]1CN[C@H](C(=O)O)C1; Hyp = O=C(O)[C@@H]1C[C@@H](O)CN1; Orn = NCCC[C@H](N)C(=O)O; GABA = NCCCC(=O)O; Sar = CNCC(=O)O

Columns and labels:
[1] = target: T1, human melanocortin 4 receptor (human, UniProt P32245 1-332); assay: competition with 125-NDP-α-MSH, BHK human MC4R membranes
T1 construct: whole, on cells; cAMP assay on whole BHK cells; also called MC4R; human MC4 receptor
T1 sequence (P32245 whole entry): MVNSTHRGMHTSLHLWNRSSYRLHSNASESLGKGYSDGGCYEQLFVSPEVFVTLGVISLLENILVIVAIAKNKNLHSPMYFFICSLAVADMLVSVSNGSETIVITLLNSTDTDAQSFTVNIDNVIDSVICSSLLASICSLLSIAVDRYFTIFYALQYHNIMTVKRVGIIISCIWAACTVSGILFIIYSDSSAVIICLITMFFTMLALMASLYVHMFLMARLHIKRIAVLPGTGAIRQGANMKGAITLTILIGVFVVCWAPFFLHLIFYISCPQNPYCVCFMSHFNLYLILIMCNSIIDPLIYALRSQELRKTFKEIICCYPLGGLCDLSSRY
Outline: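 Competition binding used membranes from BHK cells stably expressing human MC4R with ¹²⁵I-NDP-α-MSH (apx. […] final), compound at 1 μM–0.001 nM. Incubation was 2 h at 25 °C in HEPES pH 7.0 buffer with CaCl₂, MgSO₄, EGTA, Tween 20 and 0.1% HSA or ovalbumin. Filter-bound radioactivity was fitted by non-linear regression.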

[2] = target: human melanocortin 1 receptor (human, UniProt Q01726 1-317); assay: cell-based or functional assay
Sequence of human melanocortin 1 receptor (Q01726 whole entry): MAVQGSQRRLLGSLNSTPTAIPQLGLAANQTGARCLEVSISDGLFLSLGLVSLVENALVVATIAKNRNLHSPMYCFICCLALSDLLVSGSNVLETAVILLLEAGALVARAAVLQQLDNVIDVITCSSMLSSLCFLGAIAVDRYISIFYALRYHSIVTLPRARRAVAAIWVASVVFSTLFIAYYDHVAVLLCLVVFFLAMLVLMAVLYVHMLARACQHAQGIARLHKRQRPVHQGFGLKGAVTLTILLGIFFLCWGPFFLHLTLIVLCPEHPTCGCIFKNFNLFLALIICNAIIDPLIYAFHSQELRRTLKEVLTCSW

[3] = target: T1, human melanocortin 4 receptor; assay: cell-based or functional assay

B1: Chem. 4 (peptide)
peptide: cyclo(CH[dF]RWGCH[dF]RWG)
modifications: disulfide 1-7
SMILES: N=C(N)NCCC[C@@H]1NC(=O)[C@@H](Cc2ccccc2)NC(=O)[C@H](Cc2c[nH]cn2)NC(=O)[C@@H]2CSSC[C@H](NC(=O)CNC(=O)[C@H](Cc3c[nH]c4ccccc34)NC1=O)C(=O)N[C@@H](Cc1c[nH]cn1)C(=O)N[C@H](Cc1ccccc1)C(=O)N[C@@H](CCCNC(=N)N)C(=O)N[C@@H](Cc1c[nH]c3ccccc13)C(=O)NCC(=O)N2
notes: also called c[c[Cys-His-D-Phe-Arg-Trp-Gly-Cys]-His-D-Phe-Arg-Trp-Gly]
Ki [1]: 690 pM
MC1R cAMP EC50 [2]: 670 pM
MC4R cAMP EC50 [3]: 90 pM

B2: Chem. 28 (peptide)
peptide: cyclo(CAH[dF][Pro(trans-4-guanidino)]WCAH[dF][Pro(trans-4-guanidino)]W)
modifications: disulfide 1-7
SMILES: C[C@@H]1NC(=O)[C@@H]2CSSC[C@H](NC(=O)[C@H](Cc3c[nH]c4ccccc34)NC(=O)[C@@H]3C[C@@H](NC(=N)N)CN3C(=O)[C@@H](Cc3ccccc3)NC(=O)[C@H](Cc3c[nH]cn3)NC1=O)C(=O)N[C@@H](C)C(=O)N[C@@H](Cc1c[nH]cn1)C(=O)N[C@H](Cc1ccccc1)C(=O)N1C[C@H](NC(=N)N)C[C@H]1C(=O)N[C@@H](Cc1c[nH]c3ccccc13)C(=O)N2
notes: also called c[c[Cys-Ala-His-D-Phe-4trans-GuaPro-Trp-Cys]-Ala-His-D-Phe-4trans-GuaPro-Trp]
Ki [1]: 892000 pM
MC1R cAMP EC50 [2]: > 100000 pM
MC4R cAMP EC50 [3]: 518000 pM

B3: Chem. 24 (peptide)
peptide: cyclo(CAH[dF]HWCAH[dF]HW)
modifications: disulfide 1-7
SMILES: C[C@@H]1NC(=O)[C@@H]2CSSC[C@H](NC(=O)[C@H](Cc3c[nH]c4ccccc34)NC(=O)[C@H](Cc3c[nH]cn3)NC(=O)[C@@H](Cc3ccccc3)NC(=O)[C@H](Cc3c[nH]cn3)NC1=O)C(=O)N[C@@H](C)C(=O)N[C@@H](Cc1c[nH]cn1)C(=O)N[C@H](Cc1ccccc1)C(=O)N[C@@H](Cc1c[nH]cn1)C(=O)N[C@@H](Cc1c[nH]c3ccccc13)C(=O)N2
notes: also called c[c[Cys-Ala-His-D-Phe-His-Trp-Cys]-Ala-His-D-Phe-His-Trp]
Ki [1]: 550 pM
MC1R cAMP EC50 [2]: 178000 pM
MC4R cAMP EC50 [3]: 490 pM

B4: Chem. 20 (peptide)
peptide: CXHFRWCXHFRW
modifications: ACBC 2, 8; D-Phe 4, 10; disulphide Cys1-Cys7; head-to-tail amide Cys1-Trp12
notes: also called c[c[Cys-ACBC-His-D-Phe-Arg-Trp-Cys]-ACBC-His-D-Phe-Arg-Trp]
Ki [1]: 150 pM
MC1R cAMP EC50 [2]: 4970 pM
MC4R cAMP EC50 [3]: 40 pM

B5: Chem. 16 (peptide)
peptide: cyclo(CAH[dF][Orn]WCAH[dF][Orn]W)
modifications: disulfide 1-7
SMILES: C[C@@H]1NC(=O)[C@@H]2CSSC[C@H](NC(=O)[C@H](Cc3c[nH]c4ccccc34)NC(=O)[C@H](CCCN)NC(=O)[C@@H](Cc3ccccc3)NC(=O)[C@H](Cc3c[nH]cn3)NC1=O)C(=O)N[C@@H](C)C(=O)N[C@@H](Cc1c[nH]cn1)C(=O)N[C@H](Cc1ccccc1)C(=O)N[C@@H](CCCN)C(=O)N[C@@H](Cc1c[nH]c3ccccc13)C(=O)N2
notes: also called c[c[Cys-Ala-His-D-Phe-Orn-Trp-Cys]-Ala-His-D-Phe-Orn-Trp]
Ki [1]: 340 pM
MC1R cAMP EC50 [2]: > 1000 pM
MC4R cAMP EC50 [3]: 210 pM

B6: Chem. 23 (peptide)
peptide: cyclo(CA[Hyp][dF]RWCA[Hyp][dF]RW)
modifications: bridge 1-7 via methylene bridge (S-CH2-S)
notes: also called c[c[Cys-Ala-Hyp-D-Phe-Arg-Trp-Cys]-Ala-Hyp-D-Phe-Arg-Trp]; Note: methylene bridge
Ki [1]: 13600 pM
MC1R cAMP EC50 [2]: > 10000 pM
MC4R cAMP EC50 [3]: 3260 pM

B7: Chem. 30 (peptide)
peptide: cyclo(CPH[dF]RWCPH[dF]RW)
modifications: disulfide 1-7
SMILES: N=C(N)NCCC[C@@H]1NC(=O)[C@@H](Cc2ccccc2)NC(=O)[C@H](Cc2c[nH]cn2)NC(=O)[C@@H]2CCCN2C(=O)[C@@H]2CSSC[C@H](NC(=O)[C@H](Cc3c[nH]c4ccccc34)NC1=O)C(=O)N1CCC[C@H]1C(=O)N[C@@H](Cc1c[nH]cn1)C(=O)N[C@H](Cc1ccccc1)C(=O)N[C@@H](CCCNC(=N)N)C(=O)N[C@@H](Cc1c[nH]c3ccccc13)C(=O)N2
notes: also called c[c[Cys-Pro-His-D-Phe-Arg-Trp-Cys]-Pro-His-D-Phe-Arg-Trp]
Ki [1]: 90 pM
MC1R cAMP EC50 [2]: 610 pM
MC4R cAMP EC50 [3]: 30 pM

B8: Chem. 35 (peptide)
peptide: cyclo(C[GABA]H[dF]RWC[GABA]H[dF]RW)
modifications: disulfide 1-7
SMILES: N=C(N)NCCC[C@@H]1NC(=O)[C@@H](Cc2ccccc2)NC(=O)[C@H](Cc2c[nH]cn2)NC(=O)CCCNC(=O)[C@@H]2CSSC[C@H](NC(=O)[C@H](Cc3c[nH]c4ccccc34)NC1=O)C(=O)NCCCC(=O)N[C@@H](Cc1c[nH]cn1)C(=O)N[C@H](Cc1ccccc1)C(=O)N[C@@H](CCCNC(=N)N)C(=O)N[C@@H](Cc1c[nH]c3ccccc13)C(=O)N2
notes: also called c[c[Cys-GABA-His-D-Phe-Arg-Trp-Cys]-GABA-His-D-Phe-Arg-Trp]
Ki [1]: 30 pM
MC1R cAMP EC50 [2]: 280 pM
MC4R cAMP EC50 [3]: 10 pM

B9: Chem. 31 (peptide)
peptide: cyclo(C[Sar]H[dF]RWC[Sar]H[dF]RW)
modifications: disulfide 1-7
SMILES: CN1CC(=O)N[C@@H](Cc2c[nH]cn2)C(=O)N[C@H](Cc2ccccc2)C(=O)N[C@@H](CCCNC(=N)N)C(=O)N[C@@H](Cc2c[nH]c3ccccc23)C(=O)N[C@H]2CSSC[C@H](NC(=O)[C@H](Cc3c[nH]c4ccccc34)NC(=O)[C@H](CCCNC(=N)N)NC(=O)[C@@H](Cc3ccccc3)NC(=O)[C@H](Cc3c[nH]cn3)NC(=O)CN(C)C2=O)C1=O
notes: also called c[c[Cys-Sar-His-D-Phe-Arg-Trp-Cys]-Sar-His-D-Phe-Arg-Trp]
Ki [1]: 1670 pM
MC1R cAMP EC50 [2]: 7780 pM
MC4R cAMP EC50 [3]: 290 pM
